{"source": "patent US20150307603A1", "about": "(MODIQUEST B V, published 2015)", "binders": {"B1": {"name": "RhmAb2.102 (antibody, human IgG1, lambda)", "heavy": "not shown", "light": "QSVLTQPPSMSAAPGQKVTISCSGSSSNIGNNYVSWYQQVPGTAPKLLIYDDNKRPSGIPGRFSGSKSATSATLGITGLQAGDEADYYCGSWDDNLSVVLFGGGTKLTVLGQPKAAPSVTLFPPSSEELQANKATLVCLISDFYPGAVTVAWKADSSPVKAGVETTTPSKQSNNKYAASSYLSLTPEQWKSHRSYSCQVTHEGSTVEKTVAPTECS", "notes": "Human IgG1 lambda; also called Rhm2.102"}}, "key": {"[1]": {"target": "T1, peptide no. 11 (human histone 2A) (human, also: biotin-labelled)", "T1 construct": "also called peptide 11", "T1 peptide": "LQLAI[Cit]NDEELN", "assay": "ELISA, Ab 10 ug/well", "description": "(§1) Biotin and citrulline-containing peptides derived from histone 2A were immobilized on NEUTRAVIDIN®-coated 96-well ELISA plates (0.3 μg/well). CFC-1 and CFC-0 were coated at the same concentration and served as positive and negative controls, respectively, for specific anti-citrulline reactivity and as coating controls. Non-coated wells were used to test for aspecific binding of the antibodies. […] Detection of bound anti-citrulline antibodies was performed by incubating the wells with rabbit anti-human HRP (1:2000) for 1 hour at RT followed by incubation with TMB substrate. The resulting OD (y-axis) is a measure for antibody binding."}, "[2]": {"target": "T2, peptide no. 3 (human histone 2A) (human, also: biotin-labelled)", "T2 construct": "also called peptide 3", "T2 peptide": "KSRSS[Cit]AGLQFP", "assay": "ELISA, Ab 10 ug/well", "description": "as §1"}, "[3]": {"target": "T3, peptide no. 9 (human histone 2A) (human, also: biotin-labelled)", "T3 construct": "also called peptide 9", "T3 peptide": "DNKKT[Cit]IIPRHL", "assay": "ELISA, Ab 10 ug/well", "description": "as §1"}, "[4]": {"target": "T4, peptide no. 4 (human histone 2A) (human, also: biotin-labelled)", "T4 construct": "also called peptide 4", "T4 peptide": "QFPVG[Cit]VHRLLR", "assay": "ELISA, Ab 10 ug/well", "description": "as §1"}, "[5]": {"target": "T5, peptide no. 10 (human histone 2A) (human, also: biotin-labelled)", "T5 construct": "also called peptide 10", "T5 peptide": "TRIIP[Cit]HLQLAI", "assay": "ELISA, Ab 10 ug/well", "description": "as §1"}, "[6]": {"target": "T6, peptide no. 6 (human histone 2A) (human, also: biotin-labelled)", "T6 construct": "also called peptide 6", "T6 peptide": "VHRLL[Cit]KGNYSE", "assay": "ELISA, Ab 10 ug/well", "description": "as §1"}, "CFC-1 [7]": {"target": "T7, CFC-1", "T7 construct": "Positive control for anti-citrulline reactivity; also called cfc1 XG; Cfc1-peptide", "assay": "ELISA, Ab 10 ug/well", "description": "as §1"}, "[8]": {"target": "T8, peptide no. 1 (human histone 2A) (human, also: biotin-labelled)", "T8 construct": "also called peptide 1; AAASGXGKQGGK", "T8 peptide": "AAASG[Cit]GKQGGK", "assay": "ELISA, Ab 10 ug/well", "description": "as §1"}, "[9]": {"target": "T9, peptide no. 2 (human histone 2A) (human, also: biotin-labelled)", "T9 construct": "also called peptide 2", "T9 peptide": "AKAKS[Cit]SSRAGL", "assay": "ELISA, Ab 10 ug/well", "description": "as §1"}, "[10]": {"target": "T10, peptide no. 12 (human histone 2A) (human, also: biotin-labelled)", "T10 construct": "also called peptide 12", "T10 peptide": "NKLLG[Cit]VTIAQG", "assay": "ELISA, Ab 10 ug/well", "description": "as §1"}, "[11]": {"target": "T11, peptide no. 8 (human histone 2A) (human, also: biotin-labelled)", "T11 construct": "also called peptide 8", "T11 peptide": "AGNAA[Cit]DNKKTR", "assay": "ELISA, Ab 10 ug/well", "description": "as §1"}, "[12]": {"target": "T12, peptide no. 7 (human histone 2A) (human, also: biotin-labelled)", "T12 construct": "also called peptide 7", "T12 peptide": "GNYSE[Cit]VGAGAP", "assay": "ELISA, Ab 10 ug/well", "description": "as §1"}, "[13]": {"target": "T13, peptide no. 5 (human histone 2A) (human, also: biotin-labelled)", "T13 construct": "also called peptide 5", "T13 peptide": "VGRVH[Cit]LLRKGN", "assay": "ELISA, Ab 10 ug/well", "description": "as §1"}, "[14]": {"target": "T5, peptide no. 10 (human histone 2A)", "assay": "ELISA, Ab 0.016 ug/well", "description": "as §1"}, "[15]": {"target": "T9, peptide no. 2 (human histone 2A)", "assay": "ELISA, Ab 0.016 ug/well", "description": "as §1"}, "[16]": {"target": "T12, peptide no. 7 (human histone 2A)", "assay": "ELISA, Ab 0.016 ug/well", "description": "as §1"}, "[17]": {"target": "T14, huPAD4-deiminated human recombinant histone 2B (human)", "T14 construct": "also called H2B/p4", "assay": "ELISA, Ab 0.016 ug/well", "excerpt": "(§2) The resulting OD (y-axis) is a measure for antibody binding. H1-recombinant histone 1; H1/p2-huPAD2 recombinant histone 1; H1/p4-huPAD4 recombinant histone 1, and so forth (x-axis)."}, "[18]": {"target": "T15, huPAD2-deiminated human recombinant histone 2B (human)", "T15 construct": "also called H2B/p2", "assay": "ELISA, Ab 0.016 ug/well", "excerpt": "as §2"}, "[19]": {"target": "T16, huPAD4-deiminated human recombinant histone 2A (human)", "T16 construct": "also called H2A/p4; histone 2A/p4", "assay": "ELISA, Ab 0.016 ug/well", "excerpt": "as §2"}, "[20]": {"target": "human recombinant histone 4 (human, UniProt P62805 2-103)", "assay": "ELISA, Ab 0.016 ug/well", "excerpt": "as §2"}, "[21]": {"target": "T17, human recombinant histone 2B (human)", "T17 construct": "Non-deiminated; also called H2B", "assay": "ELISA, Ab 0.016 ug/well", "excerpt": "as §2"}, "[22]": {"target": "T18, huPAD2-deiminated human recombinant histone 2A (human)", "T18 construct": "also called H2A/p2; histone 2A/p2", "assay": "ELISA, Ab 0.016 ug/well", "excerpt": "as §2"}, "CFC-1 [23]": {"target": "T7, CFC-1", "assay": "ELISA, Ab 0.016 ug/well", "excerpt": "as §2"}, "[24]": {"target": "T19, huPAD4-deiminated human recombinant histone 3 (human)", "T19 construct": "also called H3/p4", "assay": "ELISA, Ab 0.016 ug/well", "excerpt": "as §2"}, "[25]": {"target": "T20, human recombinant histone 2A (human)", "T20 construct": "Non-deiminated; also called H2A", "assay": "ELISA, Ab 0.016 ug/well", "excerpt": "as §2"}, "[26]": {"target": "T21, huPAD2-deiminated human recombinant histone 3 (human)", "T21 construct": "also called H3/p2; histone 3/p2", "assay": "ELISA, Ab 0.016 ug/well", "excerpt": "as §2"}, "[27]": {"target": "T1, peptide no. 11 (human histone 2A)", "assay": "ELISA, Ab 0.0032 ug/well", "description": "as §1"}, "[28]": {"target": "T4, peptide no. 4 (human histone 2A)", "assay": "ELISA, Ab 0.0032 ug/well", "description": "as §1"}, "[29]": {"target": "T8, peptide no. 1 (human histone 2A)", "assay": "ELISA, Ab 0.0032 ug/well", "description": "as §1"}, "[30]": {"target": "T10, peptide no. 12 (human histone 2A)", "assay": "ELISA, Ab 0.0032 ug/well", "description": "as §1"}, "[31]": {"target": "T11, peptide no. 8 (human histone 2A)", "assay": "ELISA, Ab 0.0032 ug/well", "description": "as §1"}, "[32]": {"target": "T13, peptide no. 5 (human histone 2A)", "assay": "ELISA, Ab 0.0032 ug/well", "description": "as §1"}}, "note": "Non-standard residues stand in square brackets, D forms with d. No end group written: not given here. Cit = NC(=O)NCCC[C@H](N)C(=O)O", "data": [{"binder": "B1", "values": [{"measurement": "OD", "setting": "[1]", "value": 0.088, "unit": "OD450"}, {"measurement": "OD", "setting": "[2]", "value": 0.619, "unit": "OD450"}, {"measurement": "OD", "setting": "[3]", "value": 0.09, "unit": "OD450"}, {"measurement": "OD", "setting": "[4]", "value": 2.06, "unit": "OD450"}, {"measurement": "OD", "setting": "[5]", "value": 0.091, "unit": "OD450"}, {"measurement": "OD", "setting": "[6]", "value": 1.41, "unit": "OD450"}, {"measurement": "OD", "setting": "CFC-1 [7]", "value": 3.27, "unit": "OD450"}, {"measurement": "OD", "setting": "[8]", "value": 3.11, "unit": "OD450"}, {"measurement": "OD", "setting": "[9]", "value": 0.552, "unit": "OD450"}, {"measurement": "OD", "setting": "[10]", "value": 0.083, "unit": "OD450"}, {"measurement": "OD", "setting": "[11]", "value": 0.082, "unit": "OD450"}, {"measurement": "OD", "setting": "[12]", "value": 0.08, "unit": "OD450"}, {"measurement": "OD", "setting": "[13]", "value": 0.239, "unit": "OD450"}, {"measurement": "OD", "setting": "[14]", "value": 0.066, "unit": "OD450"}, {"measurement": "OD", "setting": "[15]", "value": 0.065, "unit": "OD450"}, {"measurement": "OD", "setting": "[16]", "value": 0.061, "unit": "OD450"}, {"measurement": "OD", "setting": "[17]", "value": 0.052, "unit": "OD450"}, {"measurement": "OD", "setting": "[18]", "value": 0.052, "unit": "OD450"}, {"measurement": "OD", "setting": "[19]", "value": 0.426, "unit": "OD450"}, {"measurement": "OD", "setting": "[20]", "value": 0.061, "unit": "OD450"}, {"measurement": "OD", "setting": "[21]", "value": 0.065, "unit": "OD450"}, {"measurement": "OD", "setting": "[22]", "value": 0.628, "unit": "OD450"}, {"measurement": "OD", "setting": "CFC-1 [23]", "value": 0.702, "unit": "OD450"}, {"measurement": "OD", "setting": "[24]", "value": 0.076, "unit": "OD450"}, {"measurement": "OD", "setting": "[25]", "value": 0.057, "unit": "OD450"}, {"measurement": "OD", "setting": "[26]", "value": 0.155, "unit": "OD450"}, {"measurement": "OD", "setting": "[27]", "value": 0.057, "unit": "OD450"}, {"measurement": "OD", "setting": "[28]", "value": 0.078, "unit": "OD450"}, {"measurement": "OD", "setting": "[29]", "value": 0.3, "unit": "OD450"}, {"measurement": "OD", "setting": "[30]", "value": 0.059, "unit": "OD450"}, {"measurement": "OD", "setting": "[31]", "value": 0.06, "unit": "OD450"}, {"measurement": "OD", "setting": "[32]", "value": 0.063, "unit": "OD450"}]}]}
